Data from publication PMC3189723.

Target: ribosome nascent chain complex RNC_(1A9L) labeled with Cm on the nascent chain (1A9L 56 amb)
Test: FRET or BRET

Substance: BODIPY-Fl labeled Signal Recognition Particle (SRP; protein component Ffh) (from UniProt P0AGD7 1-453) (complex)
- Kd: 0.73 nM
